In patent US20070197442A1, “Methods for the Treatment of Macular Degeneration and Related Eye Conditions” (priority 2006, published 2007):

Key:
LCAT = biological target: T1, LCAT (Homo sapiens, UniProt P04180); test: in vitro LCAT activation; assay type: biochemical; settings: in the presence of lipids; % of the activity of native apoA-I
T1 sequence (P04180 25-440): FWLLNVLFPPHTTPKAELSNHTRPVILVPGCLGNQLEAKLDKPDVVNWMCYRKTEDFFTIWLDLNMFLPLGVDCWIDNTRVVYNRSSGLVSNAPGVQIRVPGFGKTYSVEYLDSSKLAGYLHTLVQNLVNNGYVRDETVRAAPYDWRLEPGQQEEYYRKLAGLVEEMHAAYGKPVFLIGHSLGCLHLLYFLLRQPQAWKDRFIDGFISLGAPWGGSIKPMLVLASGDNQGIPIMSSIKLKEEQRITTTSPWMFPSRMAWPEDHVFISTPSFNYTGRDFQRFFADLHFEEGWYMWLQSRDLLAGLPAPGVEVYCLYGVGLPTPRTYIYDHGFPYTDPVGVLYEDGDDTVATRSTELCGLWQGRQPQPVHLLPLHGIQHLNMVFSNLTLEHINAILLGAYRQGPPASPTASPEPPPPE
From the text: ESP24218 (SEQ ID NO:1), the peptide component of the peptide/phospholipid complex, is a 22 amino acid peptide having a helical structure and amphipathic properties designed based on the helical repeats of apoA-I. In the presence of lipids, this peptide approaches 100% of the activity of native apoA-I in in vitro LCAT activation. The peptide can be prepared by chemical synthesis using any technique known to those of skill in the art. The peptide can be prepared by the synthetic techniques described in U.S. Pat. No. 6,004,925, incorporated herein by reference in its entirety for all purposes. Typically, ESP24218 (SEQ ID NO:1) is produced by a stepwise chemical synthesis on a solid support. In preferable embodiments, all amino acids in the peptide are natural L-α-amino acids in configuration. Generally, the amino and carboxyl termini of the peptide are free. The amino acid sequence of ESP24218 (SEQ ID NO:1) is shown in FIG. 1, which is as follows: H-[…]OH. The phospholipid can be obtained from any source known to those of skill in the art. […]

[1] = test system: apo E expression in HepG2 cells; settings: cited from earlier work

Row | Substance | activity in in vitro LCAT activation relative to native apoA-I (LCAT) [%] | increase of expression of apo E [1]
1 | H-Pro-Val-Leu-Asp-Leu-Phe-Arg-Glu-Leu-Leu-Asn-Glu-Leu-Leu-Glu-Ala-Leu-Lys-Gln-Lys-Leu-Lys-OH [ESP24218] | ~100 | 
2 | Thyroid hormone |  | three
